Measurements taken from paper PMC6102046 (Nature structural & molecular biology, 2017).
Positions count from the first letter of the chain named. In names and notes the source's numbering stands.

T1: CNPY2 (UniProt Q9Y2B0)
T1 chain: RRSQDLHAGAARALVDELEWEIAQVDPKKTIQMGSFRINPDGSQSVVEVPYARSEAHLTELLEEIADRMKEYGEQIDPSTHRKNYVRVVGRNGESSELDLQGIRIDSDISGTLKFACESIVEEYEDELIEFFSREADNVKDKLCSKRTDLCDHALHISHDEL

T2: CNPY2 (UniProt Q9Y2B0)
T2 chain: T1 chain with A8C, A11C, A66C

B1: PERK LD (protein)
chain: AGRARGLPAPTAEAAFGLGAAAAPTSATRVPAAGAVAAAEVTVEDAEALPAAAGEQEPRGPEPDDETELRPRGRSLVIISTLDGRIAALDPENHGKKQWDLDVGSGSLVSSSLSKPEVFGNKMIIPSLDGALFQWDQDRESMETVPFTVESLLESSYKFGDDVVLVGGKSLTTYGLSAYSGKVRYICSALGCRQWDSDEMEQEEDILLLQRTQKTVRAVGPRSGNEKWNFSVGHFELRYIPDMETRAGFIESTFKPNENTEESKIISDVEEQEAAIMDIVIKVSVADWKVMAFSKKGGHLEWEYQFCTPIASAWLLKDGKVIPISLFDDTSYTSNDDVLEDEEDIVEAARGATENSVYLGMYRGQLYLQSSVRISEKFPSSPKALESVTNENAIIPLPTIKWKPLIHSPSRTPVLVGSDEFDKCLSNDKFSHEEYSNGALSILQYPYDNGYYLPYYKRERNKRSTQITVRFLDNPHYNKNIRKKD
B2: 6X His/T7-tagged PERK luminal domain (PERK-LD) (domain or fragment, UniProt Q9Z2B5 29-510, looked up)
chain: VAPARSLLAPASETVFGLGAAAAPTSAARVPAVATAEVTVEDAEALPAAAGEPESRATEPDDDVELRPRGRSLVIISTLDGRIAALDAENDGKKQWDLDVGSGSLVSSSLSKPEVFGNKMIIPSLDGDLFQWDRDRESMEAVPFTVESLLESSYKFGDDVVLVGGKSLITYGLSAYSGKLRYICSALGCRRWDSDEMEEEEDILLLQRTQKTVRAVGPRSGSEKWNFSVGHFELRYIPDMETRAGFIESTFKPGGNKEDSKIISDVEEQEATMLDTVIKVSVADWKVMAFSRKGGRLEWEYQFCTPIASAWLVRDGKVIPISLFDDTSYTASEEALGDEEDIVEAARGATENSVYLGMYRGQLYLQSSVRVSEKFPTSPKALESVNGENAIIPLPTIKWKPLIHSPSRTPVLVGSDEFDKCLSNDKYSHEEYSNGALSILQYPYDNGYYLPYYKRERNKRSTQITVRFLDSPHYSKNIRKKD
B3: His-tagged CNPY2 wild type (natural protein, UniProt Q9QXT0 21-182, looked up)
chain: T1 chain with A8C, A11C, Q24R, I65V, A66C, G90S, I157R
B4: His-tagged CNPY2 3C-A mutant (C28A, C31A, C86A) (natural protein, UniProt Q9QXT0 21-182, looked up)
chain: T1 chain with Q24R, I65V, G90S, I157R

Experiments:
Test in all cases: ITC
[1] = target: T1, CNPY2
[2] = target: T2, CNPY2
[3] = target: B3
[4] = target: B4
[5] = target: B2

Binder: B1
- Kd [1]: 7.5 µM
- Kd [2]: 13.2 µM

Binder: B2
- stoichiometry N [3]: 1.16
- stoichiometry N [4]: 1.04

Binder: B3
- Kd [5]: 13.2 µM

Binder: B4
- Kd [5]: 7.5 µM
